EP3408384B1, “MUTATED CELLOBIOSE DEHYDROGENASE WITH MODIFIED SUBSTRATE SPECIFICITY” (priority 2016, dated 2017)

Tested on: OC[C@H]1O[C@@H](O[C@H]2[C@H](O)[C@@H](O)C(O)O[C@@H]2CO)[C@H](O)[C@@H](O)[C@H]1O
Assay: Steady-state kinetics, DCIP-based enzymatic activity assay
Format: biochemical, Neurospora crassa
Details: other: apparent constant, 100 mM McIlvaine buffer pH 5.5, DCIP as artificial electron acceptor, 30°C
Method: Enzyme activity was assayed at 30°C using the DCIP (Karapetyan et al., 2005 Journal of Biotechnology 121: 34-48) as electron acceptor. Stock solutions of carbohydrates used for kinetic measurements were prepared in the respective buffer and allowed to stand overnight for mutarotation, while stock solutions of electron acceptors were prepared in water and immediately used. The reaction stoichiometry is 1 for the two-electron acceptor DCIP (1 mole of DCIP reduced per mole of carbohydrate oxidized. Kinetic constants were calculated by fitting the observed data to the Henri-Michaelis-Menten equation or to the adapted model for substrate inhibition using nonlinear least-squares regression and the program SigmaPlot (Systat Software, San Jose, CF, USA). The protein concentration was determined with the Bradford assay.
CDH from N. crassa oxidises glucose and galactose (Harreither et al., 2007), which has negative side effects on the lactose detection accuracy if glucose and galactose are present. […] The enzyme variant N722Q was heterologously produced in P. pastoris according to the explained routines and compared to the recombinant wild-type CDH from N. crassa. […] To investigate the effect of the mutation in the N. crassa variant a full characterization of steady-state constants was performed (Tables 2 and 3). Table 2: Apparent kinetic constants of wtCDH for indicated electron donors in 100 mM McIlvaine buffer at pH 5.5 using DCIP as artificial electron acceptor
Table 3: Apparent kinetic constants of N722Q N. crassa sensor for indicated electron donors in 100 mM McIlvaine buffer at pH 5.5 using DCIP as artificial electron acceptor

In the case of “Neurospora crassa cellobiose dehydrogenase (CDH) variant N722Q (N722 of SEQ ID NO: 4 substituted by glutamine) (Neurospora crassa OR74A; N722Q)”, the Km is reported as 2.18 ± 0.28 > 10 M^b mM, the kcat is reported as 77.92 s⁻¹ and the kcat/Km is reported as 35740 M⁻¹ s⁻¹.
